According to patent US20210040232A1 (Regeneron, published 2021):

T1: soluble Macaca fascicularis CTLA-4 expressed with a C-terminal myc-myc-polyhistidine tag (Macaca fascicularis)
T1 construct: soluble protein; also called mf CTLA-4.mmh; mfCTLA4.mmh
T1 chain: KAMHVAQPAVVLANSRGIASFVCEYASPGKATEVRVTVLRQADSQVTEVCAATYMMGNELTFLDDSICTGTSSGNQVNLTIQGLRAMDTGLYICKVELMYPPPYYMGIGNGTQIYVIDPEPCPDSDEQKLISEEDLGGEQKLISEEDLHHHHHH

B1: H1H19303P (antibody, human IgG1, kappa, V domains shown)
VH: EVQLVESGGGLVQPGGSLRLSCAASGFTFSNYEMSWVRQAPGKGLEWVSSIRTSGTTKYYADSMKGRFTISRDNAKNSLYLQMNSLRAEDTAVYYCAGGGTFLHYWGQGTLVTVSS
VL: DIQMTQSPSSVSASVGDRVTITCRASQGIASYLAWYQQKPGKAPKLLIYAASSLQTGVPSRFSGSGYGTDFTLTISSLQPEDFATYYCQQAKSFPMYTFGQGTKLEIKR
notes: also called REGN4659
B2: H1H19291P (antibody, human IgG1, V domains shown)
VH: QVQLVESGGGVVQPGRSLRLSCAASGFTFSTYGMHWVRQAPGKGLEWVTVIWYDGNNKYYADSVKGRFTISRDNSKNTLYLQMNNLRAEDTALYYCARGGGRLSYYHDYWGQGTLVTVSS
VL: DIQMTQSPSSLSASVGDRVTITCRASQSISTFLNWYQQKPGKAPNLLIYGTSSLQSGVPSRFSGSGSGTDFTLTISSLQPEDFAAYYCQQTYSTPFTFGPGTKVDIK
B3: H1H19313P (antibody, human IgG1, V domains shown)
VH: QITLKESGPTLVKPTQTLTLTCTFSGFSLSTSGVGVGWIRQPPGVALEWLALIYWNDDKRFSPSLKSRLTITKDTSKNQVVLTMTNMDPVDTATYYCAHRRLGLYYFDYWGQGTLVTVSS
VL: DIQLTQSPSFLSASVGDRVTITCWASQGISSYLAWYQQKPGKAPKLLIYAASTLQSGVPSRFSGSGSGTEFTLTISSLQPEDFATYYCQQVHIYPFTFGPGTKVDIK
B4: H1H19319P2 (antibody, human IgG1, V domains shown)
VH: QVQLVESGGGEVQPGRSLRLSCAASGFTFSSYGMHWVRQAPGKGLEWVAVIWYDGRNKHYVDSVKGRFTISRDNSKNTVYLQMNSLRAEDSAVYYCVRGGQLGAFDYWGQGTLVTVSS
VL: not shown
B5: H1H19273P (antibody, human IgG1, V domains shown)
VH: QITLKESGPTLVKPTQTLTLTCTFSGFSLSTSGVGVGWIRQSPGRALEWLALIYWNDHERYSPSLKSRLTITKDTSKNLVVLAMANMDPVDTATYFCAHRNIEYRRSYFFDYWGQGTLVTVSS
VL: DIQMTQSPSSVSASVRDRVTVTCRASQDINNWLAWYQQKPGKAPKLLIYAASSLQSGVPSRFSGSGSGTDFTLTISSLQPEDFATYYCQQANTFPFTFGPGTKVDIK
B6: H1H19269P (antibody, human IgG1, V domains shown)
VH: EVQLVESGGGLVQPGGSLKLSCAASGFTFSGSAMHWVRQASGKGLEWVGRIRGKANSFATAYSASVKGRFTISRDDSKNTASLQMNSLRTEDTAVYFCTREDQQLVRPYYYHYGMDVWGQGTTVTVSS
VL: DIQMTQSPSSLSASVGDRVTITCRTSQSITNYLNWYQQKPGKAPKLLIYATASLQSGVPSRFSGSGSETDFTLTISSLQPEDFATYYCQQSYSTPLTFGGGTKVEIK
B7: H1H19327P2 (antibody, human IgG1, V domains shown)
VH: QVQLVESGGGVVQPGRSLRLSCAASGFTSSSYGIHWVRQAPGKGLEWVAVIWYDGSNKYYADSVKGRFTISRDNSKNTLYLQMNSLRAEDTAVYYCARGGPWGAFDIWGQGTMVTVSS
VL: not shown
B8: H1H19281P (antibody, human IgG1, V domains shown)
VH: QVQLVESGGGVVQPGRSLRLSCAASGLTFSYYGMHWVRQAPGKGLEWVAVISYDGSNKYYADSVKGRFTISRDNSKNTLYLQMNSLRAEDAAVYYCAKDLGGDDYYGMDVWGQGTTVTVSS
VL: EIVLTQSPGTLSLSPGERATLSCRASQSVSRTYLAWYQQKPGQAPRLLIYGAFSRATGIPDRFSGSGSGTDFTLTISRLEPEDFAVYYCQQYGSSPYTFGQGTKLEIK

molecular target: T2, recombinant hCTLA-4-mFc (human CTLA-4 extracellular domain with a C-terminal Fc portion of mouse IgG2a) (human); experiment: competition ELISA, 200 pM hCTLA-4-mFc on plate-coated hB7-1-hIgG1-6His
T2 construct: also called dimeric CTLA-4 protein
T2 sequence (chain, as listed by the source limits assumed): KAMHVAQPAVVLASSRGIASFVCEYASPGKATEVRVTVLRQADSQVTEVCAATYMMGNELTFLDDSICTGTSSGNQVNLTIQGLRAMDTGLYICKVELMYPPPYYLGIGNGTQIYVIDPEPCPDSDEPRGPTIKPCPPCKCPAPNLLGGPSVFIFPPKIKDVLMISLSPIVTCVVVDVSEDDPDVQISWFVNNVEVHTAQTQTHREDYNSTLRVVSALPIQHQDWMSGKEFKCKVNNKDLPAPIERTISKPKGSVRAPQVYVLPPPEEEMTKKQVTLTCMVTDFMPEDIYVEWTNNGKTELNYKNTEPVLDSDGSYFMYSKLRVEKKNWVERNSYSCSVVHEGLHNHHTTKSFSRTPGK

| % Blockade | IC50 | Binder |
| --- | --- | --- |
| 90% | 180 nM | B1 |
| 98% | 2 nM | B2 |
| 98% | 0.4 nM | B3 |
| 85% | 320 nM | B4 |
| 98% | 0.25 nM | B5 |
| 98% | 0.1 nM | B6 |
| 7% | – | B7 |
| 99% | – | B8 |

molecular target: T2, recombinant hCTLA-4-mFc (human CTLA-4 …); experiment: competition ELISA, 400 pM hCTLA-4-mFc on plate-coated hB7-2-hIgG1-6His; * value below theoretical bottom of assay

| IC50 | Binder |
| --- | --- |
| 0.19 nM | B6 |
| 0.19 nM | B8 |

molecular target: T2, recombinant hCTLA-4-mFc (human CTLA-4 …); experiment: competition ELISA, 400 pM hCTLA-4-mFc on plate-coated hB7-2-hIgG1-6His

| % Blockade | IC50 | Binder |
| --- | --- | --- |
| 97% | 39 nM | B1 |
| 99% | 2.5 nM | B2 |
| 99% | 0.77 nM | B3 |
| 97% | 43 nM | B4 |
| 98% | 0.54 nM | B5 |
| 100% | – | B6 |
| 38% | – | B7 |
| 100% | – | B8 |

molecular target: T2, recombinant hCTLA-4-mFc (human CTLA-4 …); experiment: competition ELISA, 200 pM hCTLA-4-mFc on plate-coated hB7-1-hIgG1-6His; * value below theoretical bottom of assay

| IC50 | Binder |
| --- | --- |
| 0.094 nM | B8 |

molecular target: T3, hCTLA-4 extracellular domain (aa 1-161) fused to the trans-membrane and cytoplasmic domain of hCD300a (aa … (human, UniProt Q9UGN4 181-299)); experiment: cell-based or functional assay
T3 sequence (Q9UGN4 other isoform, or with tags, fused parts or gaps limits assumed, form in doubt): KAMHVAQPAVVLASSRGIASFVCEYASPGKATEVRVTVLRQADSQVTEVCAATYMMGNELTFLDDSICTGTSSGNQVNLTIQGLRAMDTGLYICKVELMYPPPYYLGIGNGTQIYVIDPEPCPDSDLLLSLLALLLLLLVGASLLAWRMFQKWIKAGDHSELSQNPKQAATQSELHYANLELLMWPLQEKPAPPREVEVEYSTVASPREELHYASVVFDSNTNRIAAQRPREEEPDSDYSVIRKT

| EC50, T-cell/APC IL-2 release assay, APC HEK293/hCD20/hCD80 | Fold induction of IL-2 at 100 nM, APC HEK293/hCD20/hCD80 | Binder |
| --- | --- | --- |
| 40.9 nM | 5.4 fold | B1 |
| 21.9 nM | 5.7 fold | B3 |
| 33.3 nM | 5.1 fold | B5 |

molecular target: T4, human CTLA-4 (amino acids M1-N223) on stably transfected VI-fibroblast cells (human, UniProt P16410 36-223); experiment: ECL cell binding, VI-fibroblast/hCTLA-4 cells;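 note: antibodies bound to the cells on carbon electrode plates, detected via SULFO-TAG anti-IgG secondary (1 h, RT), electrochemiluminescence read as RLU over a concentration range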
T4 construct: also called VI-fibroblast/hCTLA-4
T4 sequence (P16410 36-223 limits assumed): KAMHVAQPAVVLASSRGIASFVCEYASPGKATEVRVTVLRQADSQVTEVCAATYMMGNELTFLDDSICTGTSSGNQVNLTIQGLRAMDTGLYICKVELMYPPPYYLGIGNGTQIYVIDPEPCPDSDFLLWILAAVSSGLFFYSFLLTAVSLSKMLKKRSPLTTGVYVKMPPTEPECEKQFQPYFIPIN

| EC50 | ratio of RLU signal to parental VI-fibroblast at 0.4 nM Ab | Binder |
| --- | --- | --- |
| 0.21 nM | 20 ratio | B1 |
| – | 5 ratio | B2 |
| 0.16 nM | 11 ratio | B3 |
| 0.24 nM | – | B4 |
| – | 11 ratio | B5 |
| 0.4 nM | 15 ratio | B6 |
| 0.29 nM | 16 ratio | B7 |
| 0.075 nM | 23 ratio | B8 |

molecular target: mf CTLA-4 extracellular domain (aa 1-161) fused to the trans-membrane and cytoplasmic domain of hCD300a (aa … (Macaca fascicularis; human, UniProt G7PL88 1-161; Q9UGN4 181-299); experiment: cell-based or functional assay

| EC50, T-cell/APC NFAT-luciferase assay, +Fc Block | Binder |
| --- | --- |
| 7.67 nM | B2 |
| 5.76 nM | B7 |

molecular target: T3, hCTLA-4 extracellular domain (aa 1-161) …; experiment: cell-based or functional assay; remark: another data set of the same source

| EC50, T-cell/APC NFAT-luciferase assay, +Fc Block | EC50, T-cell/APC NFAT-luciferase assay, -Fc Block | Binder |
| --- | --- | --- |
| 1.73 nM | 1.61 nM | B1 |
| 3.92 nM | 2.36 nM | B2 |
| 3.47 nM | 1.69 nM | B3 |
| 4.18 nM | 2.47 nM | B4 |
| 3.83 nM | 2.74 nM | B5 |
| 5.49 nM | 4.2 nM | B7 |

molecular target: T3, hCTLA-4 extracellular domain (aa 1-161) …; experiment: ECL cell binding, Jurkat/NFAT-Luc/hCTLA-4-hCD300a cells

| EC50 | Binder |
| --- | --- |
| 0.29 nM | B1 |
| 0.11 nM | B3 |
| 0.28 nM | B4 |
| 0.52 nM | B5 |

Molecular target: T1, soluble Macaca fascicularis CTLA-4 …
Experiment: SPR, mAb capture, 25 C

| Kd | koff | kon | t1/2 | Binder |
| --- | --- | --- | --- | --- |
| 15.7 nM | 0.00245 s⁻¹ | 156000 M⁻¹ s⁻¹ | 4.7 min | B1 |
| 13 nM | 0.00121 s⁻¹ | 93100 M⁻¹ s⁻¹ | 9.6 min | B2 |
| 0.976 nM | 0.000464 s⁻¹ | 475000 M⁻¹ s⁻¹ | 24.9 min | B3 |
| 12.9 nM | – | – | 4.4 min | B4 |
| 0.956 nM | 0.000346 s⁻¹ | 362000 M⁻¹ s⁻¹ | 33.4 min | B5 |
| 1.22 nM | 0.000435 s⁻¹ | 356000 M⁻¹ s⁻¹ | 26.6 min | B6 |
| 62.4 nM | 0.0117 s⁻¹ | 188000 M⁻¹ s⁻¹ | 1 min | B7 |
| 2.14 nM | 0.00101 s⁻¹ | 472000 M⁻¹ s⁻¹ | 11.5 min | B8 |

molecular target: T5, soluble human CTLA-4 expressed with a C-terminal myc-myc-polyhistidine tag (human); experiment: SPR, mAb capture, 25 C
T5 construct: soluble protein; also called hCTLA-4.mmh; hCTLA4.mmh

| Kd | koff | kon | t1/2 | Binder |
| --- | --- | --- | --- | --- |
| 16.4 nM | 0.00199 s⁻¹ | 121000 M⁻¹ s⁻¹ | 5.8 min | B1 |
| 13.8 nM | 0.00123 s⁻¹ | 88800 M⁻¹ s⁻¹ | 9.4 min | B2 |
| 1.55 nM | 0.000758 s⁻¹ | 489000 M⁻¹ s⁻¹ | 15.2 min | B3 |
| 10.2 nM | – | – | 7.9 min | B4 |
| 0.966 nM | 0.000362 s⁻¹ | 374000 M⁻¹ s⁻¹ | 31.9 min | B5 |
| 1.2 nM | 0.000474 s⁻¹ | 394000 M⁻¹ s⁻¹ | 24.4 min | B6 |
| 66.3 nM | 0.000585 s⁻¹ | 8810 M⁻¹ s⁻¹ | 19.8 min | B7 |
| 1.53 nM | 0.000741 s⁻¹ | 484000 M⁻¹ s⁻¹ | 15.6 min | B8 |
